One block for each binder: values may come before it.
Tests used:
[1] = biological target: T1, human PD-L1/His fusion protein (human, UniProt Q9NZQ7 19-239); assay: BLI off-rate; test group 4
Description: (§1) Briefly, antibodies were characterized for affinities and binding kinetics by Octet®RED96 biolayer interferometry (Pall ForteBio LLC). Antibodies were captured by Anti-hIgG Fc Capture (AHC) Biosensors (Pall) at a concentration of 100 nM for 30 seconds. Sensors were then dipped into running buffer (1×pH 7.2 PBS, 0.05% Tween 20, 0.1% BSA) for 60 seconds to check baseline. Binding was measured by dipping sensors into a single concentration of recombinant human PD-L1/His fusion protein (Novoprotein). Dissociation was followed by dipping sensors into running buffer for 1200 seconds. The association and dissociation curves were fitted to a 1:1 Langmuir binding model using ForteBio Data Analysis software (Pall). […] The off-rate ratio serves as a data normalization. Accordingly, in each test group, the off-rate ratios of the humanized antibodies can be compared with that of the chimeric antibody, and the off-rate ratios of each of the humanized antibodies can be compared to one another within all test groups.

[2] = biological target: T1, human PD-L1/His fusion protein; assay: BLI Octet RED96, antibody on AHC sensor, single conc. PD-L1/His; test group 4; test group 4
Description: as §1

[3] = biological target: T2, biotinylated human PD-L1 protein (ACROBiosystems, H82E5) (human, UniProt Q9NZQ7 19-238, biotinylated (site not stated)); assay: dual-binding ELISA: human TGFβ2 coated, 5 nM binding protein bound to it, biotinylated human PD-L1 titrated 0.0006-10 nM (axis labelled Ab (nM)), streptavidin-HRP, OD450; the EC50 is of the titrated PD-L1
T2 construct: also called biotinylated PD-L1
Description: (§2) Briefly, ELISA plates were incubated overnight at 4° C. with 100 μl of a human TGFβ isoform diluted in PBS buffer, pH 7.4, at 1 μg/ml, to allow the human TGFβ isoform to coat (adsorb to) the surface of the wells. Plates were washed three times in washing buffer (PBS containing 0.05% Tween 20) and blocked for 1 hour at 37° C. with 200 μl per well blocking buffer (1% BSA in PBS containing 0.05% Tween 20). […] The wells were washed four times with washing buffer, and Streptavidin-HRP (Merck, RABHRP3) was diluted 1:10000 and added to the wells at 100 μl per well. The plates were incubated for 1 hour at 37° C. and washed four times in washing buffer. 100 μl of tetramethylbenzidine (TMB) chromogenic solution were added per well.

[4] = biological target: T2, biotinylated human PD-L1 protein …; assay: dual-binding ELISA: human TGFβ3 coated, 5 nM binding protein bound to it, biotinylated human PD-L1 titrated 0.0006-10 nM (axis labelled Ab (nM)), streptavidin-HRP, OD450; the EC50 is of the titrated PD-L1
Description: as §2

human TGFβ1 = biological target: T3, human TGFβ1 (human, UniProt P01137 279-390); assay: ELISA: human TGFβ1 coated (1 µg/ml), binding protein titrated 0.0006-10 nM, anti-human IgG Fc-HRP, OD450
T3 construct: also called TGFβ isoform 1; TGFβ1 (Cat. No. CA59, Novoprotein)
Description: (§3) Accordingly, each of the wells of the ELISA microplates provided a reaction mixture to test the ability of a particular binding protein at a particular concentration to bind to a particular TGFβ isoform. […] Plates were washed three times in washing buffer (PBS containing 0.05% Tween 20) and blocked for 1 hour at 37° C. with 200 μl per well of blocking buffer (1% BSA in PBS containing 0.05% Tween 20). […] The wells containing the various binding mixtures were incubated at 37° C. for 1 hour to permit binding to TGFβ protein on the surface of the wells. Thereafter, the wells were washed four times with washing buffer, and anti-human IgG Fc HRP (Sigma, Catalog No. A0170) was diluted 1:10000 and added to the wells at 100 μl per well to detect binding protein that was bound to TGFβ protein present on the surface of a well. The plates were incubated for 1 hour at 37° C. and washed four times with washing buffer. 100 μl of tetramethylbenzidine (TMB) chromogenic solution were added per well. Following color development, the reaction was stopped with 1 N HCl, and absorbance at 450 nm (OD450) was measured on a VARIOSKAN™ LUX microplate reader (Thermo Scientific™).

human TGFβ2 = biological target: T4, human TGFβ2 (human, UniProt P61812 303-414); assay: ELISA: human TGFβ2 coated (1 µg/ml), binding protein titrated 0.0006-10 nM, anti-human IgG Fc-HRP, OD450
T4 construct: also called TGFβ isoform 2; TGFβ2 (Cat. No. CJ79, Novoprotein)
T4 sequence (looked up): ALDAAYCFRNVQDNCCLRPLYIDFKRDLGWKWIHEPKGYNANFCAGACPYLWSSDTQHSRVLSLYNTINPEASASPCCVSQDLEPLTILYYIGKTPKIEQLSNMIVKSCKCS
Description: as §3

[5] = biological target: T2, biotinylated human PD-L1 protein …; assay: dual-binding ELISA: human TGFβ1 coated, 5 nM binding protein bound to it, biotinylated human PD-L1 titrated 0.0006-10 nM (axis labelled Ab (nM)), streptavidin-HRP, OD450; the EC50 is of the titrated PD-L1
Description: as §2

[6] = biological target: T1, human PD-L1/His fusion protein; assay: BLI Octet Red, binding protein on AHC sensor, PD-L1-his in solution
Description: Sensors were then dipped into running buffer (1×pH 7.2 PBS, 0.05% Tween 20, 0.1% BSA) for 60 seconds to check baseline. Binding was measured by dipping sensors into a series diluted concentration of recombinant human PD-L1-his protein. Dissociation was followed by dipping sensors into running buffer for 1200 seconds. The association and dissociation curves were fitted to a 1:1 Langmuir binding model using ForteBio Data Analysis software (Pall). The equilibrium dissociation constant KD (M) of the reaction between antibodies and related target proteins was then calculated from the kinetic rate constants using the formula KD=koff/kₒₙ.

T2 sequence (Q9NZQ7 19-238 limits assumed): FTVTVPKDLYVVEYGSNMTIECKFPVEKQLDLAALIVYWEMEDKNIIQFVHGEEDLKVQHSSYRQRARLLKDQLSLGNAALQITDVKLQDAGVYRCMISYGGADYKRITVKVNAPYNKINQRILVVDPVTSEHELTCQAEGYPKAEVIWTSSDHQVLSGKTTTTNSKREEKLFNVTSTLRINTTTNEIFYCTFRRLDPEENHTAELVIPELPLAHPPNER
T1 sequence (Q9NZQ7 19-239 limits assumed): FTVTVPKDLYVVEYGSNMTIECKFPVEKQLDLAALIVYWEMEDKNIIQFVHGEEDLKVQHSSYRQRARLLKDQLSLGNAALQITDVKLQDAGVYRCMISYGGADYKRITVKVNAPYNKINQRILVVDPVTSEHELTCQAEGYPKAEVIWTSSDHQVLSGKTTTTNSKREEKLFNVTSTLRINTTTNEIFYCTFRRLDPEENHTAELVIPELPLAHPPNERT
T3 sequence (P01137 279-390 limits assumed): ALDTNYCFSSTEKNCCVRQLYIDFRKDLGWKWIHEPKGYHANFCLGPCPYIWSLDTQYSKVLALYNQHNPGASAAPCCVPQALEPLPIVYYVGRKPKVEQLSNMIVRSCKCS

Off-Rate Ratio to that of EM0005-90c [1]: 146% | koff [2]: 0.00328 s⁻¹
B1: HuEM0005-90-19 (antibody, human IgG1, V domains shown)
VH: EVQLVQSGAEVKKPGASVKVSCKTSGYTFTSHSINWVRQATGQGLEWMGYMYIGNGYTEYNEKFKGRVTMTSNTSISTAYMELSSLRSEDTAVYYCAKITPVVAPYVMDYWGQGTSVTVSS
VL: DIVMTQSPSFLSASVGDRVTITCKASQDVGTAVAWYQQKPGKAPKLLIYWASTRHTGVPDRFTGSGSGTDFTLTISSLQPEDFATYYCQQYSSYPYTFGQGTKLEIK

EC50 [3]: 0.262 nM | EC50 [4]: 0.262 nM | EC50 (human TGFβ1): 0.374 nM | EC50 (human TGFβ2): 0.833 nM | EC50 [5]: 0.275 nM | Kd [6]: < 0.01 nM
B2: FIT1012-7a TGFβ/PD-L1 bispecific binding protein (bispecific antibody, human IgG1, kappa)
heavy: not shown
chain: TIPPHVQKSVNNDMIVTDNNGAVKFPQLCKFCDVRFSTCDNQKSCMSNCSITSICEKPQEVCVAVWRKNDENITLETVCHDPKLPYHDFILEDAASPKCIMKEKKKPGETFFMCSCSSDECNDNIIFSEEYNTSNPDASTKGPSVFPLAPSSKSTSGGTAALGCLVKDYFPEPVTVSWNSGALTSGVHTFPAVLQSSGLYSLSSVVTVPSSSLGTQTYICNVNHKPSNTKVDKKVEPKSC
light: DIQLTQSPSFLSASVGDRVTITCKASQDVGTAVAWYQQKPGKAPKLLIYWASTRHTGVPSRFSGSGSGTEFTLTISSLQPEDFATYYCQQYSSYPYTFGQGTKLEIKRTVAAPSVFIFPPSDEQLKSGTASVVCLLNNFYPREAKVQWKVDNALQSGNSQESVTEQDSKDSTYSLSSTLTLSKADYEKHKVYACEVTHQGLSSPVTKSFNRGEC
notes: Six-chain protein; anti-PD-L1 moiety from HuEM0005-90-1 with G55A; four TGFβR2(ECD) traps

Reference: US20230242675A1 (SHANGHAI EPIMAB BIOTHERAPEUTICS, published 2023)
